The results in this text go back to US20130012451.

The target in this data set is CD44, P16070.
CD44, P16070, sequence (P16070 other isoform, or with tags, fused parts or gaps): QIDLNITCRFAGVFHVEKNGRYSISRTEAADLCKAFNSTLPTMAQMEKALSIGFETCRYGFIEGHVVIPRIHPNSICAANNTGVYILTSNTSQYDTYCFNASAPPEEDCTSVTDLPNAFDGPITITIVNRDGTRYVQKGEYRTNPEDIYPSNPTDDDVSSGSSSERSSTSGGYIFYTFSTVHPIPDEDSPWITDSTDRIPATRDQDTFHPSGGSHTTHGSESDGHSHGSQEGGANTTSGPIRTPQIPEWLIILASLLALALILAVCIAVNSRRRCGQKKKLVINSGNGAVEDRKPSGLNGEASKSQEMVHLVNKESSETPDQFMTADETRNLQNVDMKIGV

B1: Matrix Metalloproteinase-9 (MMP-9), wild type (protein)
chain: APRQRQSTLVLFPGDLRTNLTDRQLAEEYLYRYGYTRVAEMRGESKSLGPALLLLQKQLSLPETGELDSATLKAMRTPRCGVPDLGRFQTFEGDLKWHHHNITYWIQNYSEDLPRAVIDDAFARAFALWSAVTPLTFTRVYSRDADIVIQFGVAEHGDGYPFDGKDGLLAHAFPPGPGIQGDAHFDDDELWSLGKGVVVPTRFGNADGAACHFPFIFEGRSYSACTTDGRSDGLPWCSTTANYDTDDRFGFCPSERLYTQDGNADGKPCQFPFIFQGQSYSACTTDGRSDGYRWCATTANYDRDKLFGFCPTRADSTVMGGNSAGELCVFPFTFLGKEYSTCTSEGRGDGRLWCATTSNFDSDKKWGFCPDQGYSLFLVAAHEFGHALGLDHSSVPEALMYPMYRFTEGPPLHKDDVNGIRHLYGPRPEPEPRPPTTTTPQPTAPPTVCPTGPPTVHPSERPTAGPTGPPSAGPTGPPTAGPSTATTVPLSPVDDACNVNIFDAIAEIGNQLYLFKDGKYWRFSEGRGSRPQGPFLIADKWPALPRKLDSVFEERLSKKLFFFSGRQVWVYTGASVLGPRRLDKLGLGADVAQVTGALRSGRGKMLLFSGRRLWRFDVKAQMVDPRSASEVDRMFPGVPLDTHDVFQYREKAYFCQDRFYWRVSSRSELNQVDQVGYVTYDILQCPED
On to B1, for which the “phosphorylation of EGFR, western blotting” value is given as “expression of MMP-9 in wild type COS-1 cells resulted in increased phosphorylation of EGFR as compared to vector control. This activation of EGFR did not occurred in CD44-silenced COS-1 cells transfected with MMP-9 cDNA”.
